In patent publication US20200157194A1 (Regeneron, published 2020):

T1: human GREM1 (hGREM1-His; SEQ ID NO: 595) (human, UniProt O60565 25-184)
T1 construct: also called biotin-hGREM1-His; recombinant human GREM1 protein
T1 sequence: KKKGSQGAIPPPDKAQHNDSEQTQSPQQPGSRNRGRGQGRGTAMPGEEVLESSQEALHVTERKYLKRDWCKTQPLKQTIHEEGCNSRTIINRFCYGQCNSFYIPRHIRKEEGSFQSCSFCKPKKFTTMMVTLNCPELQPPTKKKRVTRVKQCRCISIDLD

T2: recombinant human GREM1 (hGREM1-His; C-terminal 10His tagged, R&D, #5190-GR) (human, UniProt O60565 25-184)
T2 construct: range 25-184; also called recombinant human GREM1 with a C-terminal decahistidine tag
T2 sequence: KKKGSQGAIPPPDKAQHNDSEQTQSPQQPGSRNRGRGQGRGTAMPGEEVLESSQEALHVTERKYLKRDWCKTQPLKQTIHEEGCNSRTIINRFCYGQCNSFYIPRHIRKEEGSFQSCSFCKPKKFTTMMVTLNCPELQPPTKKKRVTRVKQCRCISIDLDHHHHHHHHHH

B1: H2bM2783N (antibody, mouse IgG2, V domains shown)
VH: EVQLLESGGGLVQPGGSLRLSCAASGFTFSSYVMNWVRQAPGKGLEWVSAISGSGGSTYYADSVKGRSTISRDNSKNTLYLQMNSLRAEDTAIYYCAKGDIAAIVFDAFDIWGQGTVVTVSS
VL: DIQMTQSPSSLSASVGDRVTITCQASQDISSCLNWYQHKPGKAPKLLIYDASYLETGVPSRFSGSGSGTDFTFTISSLQPEDIATYYCQQYDNLPYTFGQGTKLEIK
notes: H2M prefix = mouse IgG2 Fc (here H2bM); also called H2M2783N
B2: H4H2783N2 (antibody, human IgG4, V domains shown)
VH: EVQLLESGGGLVQPGGSLRLSCAASGFTFSSYVMNWVRQAPGKGLEWVSAISGSGGSTYYADSVKGRSTISRDNSKNTLYLQMNSLRAEDTAIYYCAKGDIAAIVFDAFDIWGQGTVVTVSS
VL: DIQMTQSPSSLSASVGDRVTITCQASQDISSALNWYQHKPGKAPKLLIYDASYLETGVPSRFSGSGSGTDFTFTISSLQPEDIATYYCQQYDNLPYTFGQGTKLEIK
notes: H4H prefix = human IgG4 Fc
B3: H4H2892N (antibody, human IgG4, V domains shown)
VH: QVQLVESGGGVVQPGRSLRLSCAASGFTFSSYGIHWVRQAPGKGLEWVAILWYDGSNKYYADSVKGRFTISRDNSKTTLYLQMNSLRAEDTAVYYCARENYNDLNFDLWGRGTLVTVSS
VL: DIQLTQSPSFLSASVGDRVTITCWASQGISSYLAWYQHKPGKAPKLLIYAASTLQSGVPSRFSGSGSGIEFTLTISSLQPEDFATYYCQQLKSYPPWTFGQGTKVEIR
notes: H4H prefix = human IgG4 Fc
B4: H4H2889N (antibody, human IgG4, V domains shown)
VH: QVQLQESGPGLVKPSETLSLTCTVSGGSISNSYWSWIRQPPGKGLEWIGYIYYSGNTNYNPSLKSRVTISVDTSKNQFSLKLSSVTAADTAVYYCARVNDYSNYDSYYYGMDVWGQGTTVTVSS
VL: AIQMTQSPSSLSASVGDRVTITCRASQGIRNDLGWYQQKPGKAPKLLIYAASSLQSGVPSRFSGSGSGTDFTLTISSLQPEDFATYYCLQDYNYPPTFGQGTKVDIK
notes: H4H prefix = human IgG4 Fc
B5: H4H6269P (antibody, human IgG4, V domains shown)
VH: QVQLQESGPGLVKPSQTLSLTCTVSGGSISSGGYYWTWIRQHPGKGLEWIGYIYYSGSTYYNPSLKSRVTMSVDTSKNQFSLKLSSVTAADTAVYYCARLLDFDYWGQGTLVTVSS
VL: AIQMTQSPSSLSASVGDRVTITCRASQGIRNDLGWYQQKPGKAPKLLIYAASSLQSGVPSRFSGSGSGRDFTLTISSLQPEDFASYYCLQDHNYPLTFGGGTKVEIK
notes: H4H prefix = human IgG4 Fc
B6: H4H2895N (antibody, human IgG4, V domains shown)
VH: EVQLVESGGGLVQPGGSLRLSCAASGFTVSSNYMSWVRQAPGKGLEWVSVIYSGGNTYYADSVKGRFTISRHNSKNTLYLQMNSLRAEDTAVYYCARDLGIKSDYWGQGTLVTVSS
VL: EIVLTQSPDFQSVTPKEKVTITCRASQSIGTTLHWYQQKPDQSPKLLIKYVSQSLSGVPSRFSGSGSGTDFTLTINSLEAEDAATYYCHQSSSLPWTFGQGTKVEIK
notes: H4H prefix = human IgG4 Fc
B7: H4H2784N (antibody, human IgG4, V domains shown)
VH: QVQLVESGGGVVQPGRSLRLSCAASGFTFSSYGMHWVRQAPGKGLEWVTIIWHDGSNKYYADSVKGRFTISRDNSKNTLYLQMNSVRAEDTAVYYCARDEDFFDYWGQGTLVTVSS
VL: not shown
notes: H4H prefix = human IgG4 Fc
B8: H4H2780N (antibody, human IgG4, V domains shown)
VH: EVQLVESGGGLVKPGGSLRLSCAASGFTFSTYSMNWVRQAPGKGLEWVSSISSGSSYIYYTDSVKGRFTISRDNAKNSLYLQMNSLRAEDTAVYYCARFGSYYYFGFDVWGQGTTVTVSS
VL: DIQMTQSPSSLSASVGDRVTITCRASQGISNYLAWYQQKPGKVPKLLIFSASTLQSGVPSRFSGSGSGPDFTLTVSSLQPEDVATYYCQKYNSAPFAFGPGTKVDIK
notes: H4H prefix = human IgG4 Fc

Columns and labels:
[1] = target: T1, human GREM1 (hGREM1-His; SEQ ID NO: 595); assay: SPR, Biacore T200, 25 C, mAb captured, hGREM1-His injected;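 note: Heparin-supplemented HBS-EP+ used as running buffer, association and dissociation phases followed, Kd computed as koff divided by kon and half-life derived from koff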
Description: Kinetic experiments were carried out using HBS-EP+heparin [10 mM HEPES, 150 mM NaCl, 3 mM EDTA, 0.05% (v/v) surfactant P20, 10 μg/ml heparin sodium salt, pH 7.4] as both the running buffer and the sample buffer. […] Antigen-antibody association was monitored for 150 seconds while dissociation in buffer was monitored for 420 seconds. Kinetic analysis was performed using Scrubber software version 2.0a or Biacore T200 evaluation software v1.0 to determine kₐ and kd values. KD and t_{1/2} were then calculated from the experimentally determined kₐ and kd values as KD=kd/kₐ and t_{1/2}=In(2)/kd.

[2] = target: T2, recombinant human GREM1 (hGREM1-His; …); assay: BLI Octet, mAb captured, 100 nM GREM1 + 5 uM heparin;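 note: octet Red96 biolayer interferometry at 25 °C, antibodies captured on anti-human IgG Fc biosensors, pH 7.4 HEPES buffer with 0.1 mg/mL BSA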
[3] = target: T2, recombinant human GREM1 (hGREM1-His; …); assay: cell-based or functional assay
[4] = target: T2, recombinant human GREM1 (hGREM1-His; …); assay: BLI Octet, mAb captured, 100 nM GREM1;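 note: octet Red96 biolayer interferometry at 25 °C in pH 7.4 HEPES saline buffer, antibodies held on anti-human IgG Fc capture biosensors, then exposed to GREM1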
Description: Binding measurements were conducted using an Octet Red96 label-free biomolecular interaction instrument (ForteBio). All experiments were performed at 25° C. using plate agitation at 1000 rpm. Solutions were made in an aqueous buffer containing 10 mM HEPES, 150 mM NaCl, 3 mM EDTA 0.05% P20, 0.1 mg/mL BSA and adjusted to pH of 7.4 (HBST buffer).
Anti-Human IgG Fc Capture biosensors (ForteBio) were separately loaded with 50 μg/mL solutions of 24 different anti-GREM1 antibodies for 60 seconds. Following a 30 second wash, duplicate biosensors for each antibody were submerged into wells containing either 100 nM GREM1 solutions or 100 nM GREM1 solutions containing 5 μM of heparin, measuring association for 300 seconds.

[5] = target: T1, human GREM1 (hGREM1-His; SEQ ID NO: 595); assay: competition ELISA, biotin-hGREM1-His (100 pM) binding to coated hBMP4
Description: Data were analyzed using a sigmoidal dose-response model within Prism™ software. […] The absorbance values of the wells containing the highest concentration for each antibody were used to determine the percent maximum blocking.

[6] = target: T2, recombinant human GREM1 (hGREM1-His; …); assay: BLI Octet, mAb captured, 100 nM GREM1 without vs with 5 uM heparin;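 note: octet Red96 biolayer interferometry at 25 °C, antibodies captured on anti-human IgG Fc biosensors, association of GREM1 measured with versus without heparin in HEPES-buffered saline, pH 7.4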
[7] = target: T1, human GREM1 (hGREM1-His; SEQ ID NO: 595); assay: SPR, Biacore T200, 37 C, mAb captured, hGREM1-His injected;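 note: HBS-EP running buffer containing heparin, association and dissociation phases tracked, KD computed as koff over kon and half-life derived from koff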
[8] = target: T2, recombinant human GREM1 (hGREM1-His; …); assay: cell-based or functional assay; remark: listed apart in the source

Binder | Kd [1] [nM] | koff [1] [s⁻¹] | kon [1] [M⁻¹ s⁻¹] | t1/2 [1] [min] | Binding Signal with 30 sec Association [2] [nm] | Binding Signal with 300 sec Association [2] [nm] | IC50 [M], inhibition of hGREM1-His, W-20-17/BRE-luc luciferase (100 pM hBMP4, 10 nM hGREM1-His) [3] [M] | Binding Signal with 30 sec Association [4] [nm] | Binding Signal with 300 sec Association [4] [nm] | % blocked at maximum Ab tested (20 nM) [5] [%] | IC50 [5] [nM] | Reduction in Signal from Heparin at 30 sec [6] [nm] | Reduction in Signal from Heparin at 300 sec [6] [nm] | Kd [7] [nM] | koff [7] [s⁻¹] | kon [7] [M⁻¹ s⁻¹] | t1/2 [7] [min] | hGREM1-His Inhibition IC50, M; W-20-17 cell differentiation assay (alkaline phosphatase) [8] [nM]
B1 | 7.4 | 0.0015 | 202000 | 7.7 |  |  |  |  |  |  |  |  |  |  |  |  |  | 
B2 | 15.7 | 0.000476 | 30400 | 24 | 0.01 | 0.29 | 1.3e-09 | 0.29 | 0.47 | 76 | < 0.025 | 0.28 | 0.18 | 61.1 | 0.000849 | 13900 | 14 | 5.6
B3 | 1.22 | 0.000173 | 142000 | 67 | 0.15 | 0.49 | 9.5e-10 | 0.2 | 0.49 | 82 | 0.17 | 0.05 | 0 | 2.35 | 0.0004 | 171000 | 29 | 4.4
B4 | 1.89 | 0.000118 | 62700 | 98 | 0.05 | 0.44 | 1.2e-09 | 0.2 | 0.46 | 86 | < 0.025 | 0.15 | 0.02 | 4.06 | 0.000422 | 104000 | 27 | 5.4
B5 | 0.625 | 6.32e-05 | 101000 | 183 | 0.14 | 0.52 |  | 0.15 | 0.6 | 73 | 0.026 | 0.01 | 0.08 | 1.98 | 0.000254 | 128000 | 46 | 
B6 | 0.778 | 0.000132 | 170000 | 88 | 0.22 | 0.54 | 5.8e-10 | 0.15 | 0.5 | 94 | 0.036 | -0.07 | -0.04 | 1.23 | 0.000215 | 175000 | 54 | 1.9
B7 | 17 | 0.00105 | 61800 | 11 | 0.06 | 0.46 | 9.5e-10 | 0.24 | 0.52 | 59 | 0.45 | 0.18 | 0.06 | 13.8 | 0.00197 | 142000 | 6 | 24
B8 | 12.4 | 0.00088 | 71200 | 13 | 0.13 | 0.58 |  | 0.13 | 0.58 | 69 | 0.1 | 0 | 0 | 28 | 0.00161 | 57400 | 7 | 
